± gives the uncertainty stated by the source.
Assay: self-splicing fitness, log relative to wild type (ln ratio); higher = more splicing; Tetrahymena group I intron in knt gene, E. coli kanamycin selection, DiMSum; sequences stand for … in CUCUCU…GGAGGGAAAAGUUAUCAGGCAUGCACCUGGUAGCUAGUCUUUAAACCAAUAGAUUGCAUCGGUUUAAAAGGCAAGACCGUCAAAUUGCGGGAAAGGGGUCAACAGCCGUUCAGUACCAAGUCUCAGGGGAAACUUUGAGAUGGCCUUGCAAAGGGUAUGGUAAUAAGCUGACGGACAUGGUCCUAACCACGCAGCCAAGUCCUAAGUCAACAGAUCUUCUGUUGAUAUGGAUGCAGUUCACAGACUAAAUGUCGGUCGGGGAAGAUGUAUUCUUCUCAUAAGAUAUAGUCGGACCUCUCCUUAAUGGGAGCUAGCGGAUGAAGUGAUGCAACACUGGAGCCGCUGGGAACUAAUUUGUAUGCGAAAGUAUAUUGAUUAGUUUUGGAGUACUCGUGGUCG
Outline: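 The eight P1ex-region nucleotides of an intron in the knt kanamycin-resistance gene on pET-22b(+) were all randomised and the library put into E. coli BL21(DE3). Six replicate transformations were grown overnight at 37°C or 30°C on LB agar with or without 25 μg/mL kanamycin, together with 100 μg/mL carbenicillin, 50 μM IPTG and 0.2% rhamnose. Colonies were pooled and amplicon-sequenced on an Illumina HiSeq 2500. Fitness from DiMSum is the error-weighted combination of wild-type-normalised replicate fold changes, kanamycin over none.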

Sequence | self-splicing fitness (ln) (30 °C) | self-splicing fitness (ln) (37 °C)
CUCGAGCAAUAUUACGGCAA | -1.82 ± 0.32 | -2.31 ± 0.27
UUCUAGCAAUAUUACGCAGU | -3.89 ± 0.43 | -3.11 ± 0.35
ACCCAGCAAUAUUACGCCCC | -1.3 ± 0.12 | -0.142 ± 0.14
UAAGAGCAAUAUUACGCGUC | -3.81 ± 0.25 | -2.29 ± 0.23
AAAGAGCAAUAUUACGAAUU | -1.32 ± 0.22 | -2.28 ± 0.31
CCCAAGCAAUAUUACGCACG | -2.65 ± 0.17 | -2.84 ± 0.43
CCAGAGCAAUAUUACGUGCA | -1.88 ± 0.22 | -2.54 ± 0.4
AAAUAGCAAUAUUACGUAGC | -3.97 ± 0.33 | -1.9 ± 0.31
GGCGAGCAAUAUUACGGUGG | -3.31 ± 0.24 | -2.07 ± 0.22
UCCCAGCAAUAUUACGCCGG | -2.84 ± 0.28 | -1.21 ± 0.3
GUCCAGCAAUAUUACGUCGC | -0.994 ± 0.096 | 0.0208 ± 0.12
AAAUAGCAAUAUUACGCCUG | -0.3 ± 0.08 | -1.03 ± 0.1
UUUAAGCAAUAUUACGCGGG | -1.81 ± 0.13 | -1.63 ± 0.14
UUUUAGCAAUAUUACGACGG | -0.13 ± 0.14 | -0.173 ± 0.18
CAAGAGCAAUAUUACGUUAG | -1.97 ± 0.11 | -0.995 ± 0.12
ACGCAGCAAUAUUACGUCAA | -3.09 ± 0.2 | -2.57 ± 0.15
ACAUAGCAAUAUUACGACGC | -0.172 ± 0.071 | 0.801 ± 0.1
GCGGAGCAAUAUUACGAGUA | -3.21 ± 0.21 | -1.82 ± 0.15
GACGAGCAAUAUUACGCUGG | – | -2.79 ± 0.43
AUAGAGCAAUAUUACGAUCU | -0.131 ± 0.12 | -0.042 ± 0.17
UGGGAGCAAUAUUACGGAAU | – | -1.69 ± 0.48
GUUAAGCAAUAUUACGGUCG | -1.32 ± 0.066 | -0.767 ± 0.094
GUUUAGCAAUAUUACGCACC | -1.95 ± 0.19 | -0.522 ± 0.26
GACAAGCAAUAUUACGUCGG | -2.91 ± 0.14 | -2.43 ± 0.18
CGUCAGCAAUAUUACGCUCA | -1.1 ± 0.15 | 0.0237 ± 0.12

Sequence | self-splicing fitness (ln) (30 °C) | self-splicing fitness (ln) (37 °C)
AACAAGCAAUAUUACGCCAU | -2.66 ± 0.11 | -2.08 ± 0.13
CGUUAGCAAUAUUACGGCAU | -2.01 ± 0.11 | -1.13 ± 0.12
AUGGAGCAAUAUUACGCCAG | -2.26 ± 0.35 | –
GUAGAGCAAUAUUACGACAA | 0.152 ± 0.14 | -0.0812 ± 0.17
AAGUAGCAAUAUUACGUGGC | -2.22 ± 0.18 | -3.29 ± 0.39
GGUAAGCAAUAUUACGCUGC | -2.94 ± 0.2 | –
UCGAAGCAAUAUUACGAGCU | -3.7 ± 0.47 | -1.24 ± 0.39
GGUCAGCAAUAUUACGAUUC | -0.716 ± 0.079 | -0.325 ± 0.11
UGUAAGCAAUAUUACGCAAU | -3.44 ± 0.18 | -3.36 ± 0.2
AUCAAGCAAUAUUACGCAAG | -1.99 ± 0.15 | -0.935 ± 0.15
UUGCAGCAAUAUUACGUGCG | -3.18 ± 0.16 | -1.43 ± 0.14
GAACAGCAAUAUUACGAAGU | -2.04 ± 0.12 | -0.944 ± 0.15
ACCGAGCAAUAUUACGUUAG | -4.03 ± 0.15 | -2.65 ± 0.15
CCUCAGCAAUAUUACGGCAA | -3.12 ± 0.24 | -2.41 ± 0.23
UAUCAGCAAUAUUACGCGAG | -0.712 ± 0.057 | -0.298 ± 0.071
UUUAAGCAAUAUUACGGGAA | -1.63 ± 0.094 | -0.806 ± 0.095
UGAAAGCAAUAUUACGCUUA | -1.26 ± 0.17 | -0.254 ± 0.17
ACAUAGCAAUAUUACGCUAA | -2.26 ± 0.23 | -0.742 ± 0.34
ACAGAGCAAUAUUACGUUAC | -3 ± 0.15 | -2.96 ± 0.25
UUCCAGCAAUAUUACGCACU | -3.48 ± 0.31 | -0.748 ± 0.16
GUGCAGCAAUAUUACGGUUG | -2.62 ± 0.19 | -1.95 ± 0.16
GUCCAGCAAUAUUACGGUGG | -3.36 ± 0.15 | -2.71 ± 0.12
UGCCAGCAAUAUUACGGUAU | -3.55 ± 0.16 | -2 ± 0.19
ACCCAGCAAUAUUACGUGUG | -2.63 ± 0.062 | -1.07 ± 0.064
